Results as given in patent US20080176263A1, “Materials and Methods for Efficient and Accurate Detection of Analytes” (University of Florida Research Foundation, Inc., priority 2006, published 2008).
“And” between values parts separate entries of the source, which are not always exact repeats. Equal entries are not always repeated.

How the values were obtained:
substrate TNO211 [1] = experiment: Study #1: time-to-detection of protease activity, cleavage of substrate TNO211 by fluorescence; type: biochemical; settings: protease concentrations ≦100 ng/ml
Method: 1. Prepare a suitable standard curve diluted in enzyme buffer. Typically, a maximum of 50 ng/ml final protease concentration in the assay is used. Keep on ice until use.
2. Prepare the substrate solution by diluting the Stock Reconstituted Substrate (in DMSO) to 5.56 uM in the desired Assay Buffer (EDTA-free or EDTA-containing) to produce 90 ul of total EDTA-free or EDTA-containing Assay Buffer per well.
3. Pipette 90 ul substrate solution into each well to be assayed.
4. Take an initial fluorescence reading. To minimize interference due to the fluorescence of endogenous proteins in the samples, we routinely use excitation/emission wavelengths of 355/535 nm, respectively.
5. Pipette 10 ul standards, samples, or Enzyme Buffer (BLANK) into each well of the 96-well fluorescence assay plate.
6. Measure the change in fluorescence continuously until the standard range of interest is sufficiently resolved. Protect from light at RT or 37° C. between measurements.
7. Determine the best-fit curve relating the Change in Fluorescence (AF) vs.
[Protease]. […]
One hundred, 10, 1, and 0.1 ng of pronase, MMP-2, MMP-9, and clostridial collagenase were assayed in a total reaction volume of 100 ul for cleavage of substrate TNO211 as detected by fluorescence. The reactions were monitored for approximately one hour after the addition of the proteases.

substrate TNO211 [2] = experiment: Study #3: protease detection sensitivity, visual detection under UV; type: biochemical; settings: within 10 minutes; from 17% and 28% of pronase activity
Method: To investigate the visual detection limits of pronase, standard curves (1000-0 ng) of the protease were reacted in 50, 100, and 200 uM substrate diluted in the assay buffer. Digital photographs were taken under white light and UV. These observations were compared to those obtained quantitatively using the fluorescence plate reader. The observed detection limits for pronase were used to calculate theoretical detection limits for MMP-2 and MMP-9 (17% and 28% as active as pronase, respectively).

B1: MMP-2: protease assayed for cleavage of substrate TNO211 (protein)
chain: YNFFPRKPKWDKNQITYRIIGYTPDLDPETVDDAFARAFQVWSDVTPLRFSRIHDGEADIMINFGRWEHGDGYPFDGKDGLLAHAFAPGTGVGGDSHFDDDELWTLGEGQVVRVKYGNADGEYCKFPFLFNGKEYNSCTDTGRSDGFLWCSTTYNFEKDGKYGFCPHEALFTMGGNAEGQPCKFPFRFQGTSYDSCTTEGRTDGYRWCGTTEDYDRDKKYGFCPETAMSTVGGNSEGAPCVFPFTFLGNKYESCTSAGRSDGKMWCATTANYDDDRKWGFCPDQGYSLFLVAAHEFGHAMGLEHSQDPGALMAPIYTYTKNFRLSQDDIKGIQELYGASPDIDLGTGPTPTLGPVTPEICKQDIVFDGIAQIRGEIFFFKDRFIWRTVTPRDKPMGPLLVATFWPELPEKIDAVYEAPQEEKAVFFAGNEYWIYSASTLERGYPKPLTSLGLPPDVQRVDAAFNWSKNKKTYIFAGDKFWRYNEVKKKMDPGFPKLIADAWNAIPDNLDAVVDLQGGGHSYFFKGAYYLKLENQSLKSVKFGSIKSDWLGC
activity as % of pronase's observed activity (substrate TNO211 [1]): 17±4% and 17%
theoretical detection limit calculated from pronase limit (substrate TNO211 [2]): approximately 735 ng
